From US20060257938A1, “Method of screening for drugs that block ligand binding to a lipid binding protein” (priority 2005, published 2006)

Assays:
Format in all cases: binding
[1] = Probe fluorescence ratio response to oleic acid relative to ADIFAB2; details: response relative to ADIFAB2
How it was run: (§1)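 Fluorescently labeled rat intestinal FABP variants were read at two emission wavelengths, near the unbound maximum (about 420 to 480 nm) and the FFA-bound maximum (about 495 to 580 nm). R = Fλ1/Fλ2 after subtracting probe-free intensity; ΔR = R+agent − R0, normalized to ADIFAB2 (rI-FABP-L72A).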

[2] = Probe fluorescence ratio response to palmitic acid relative to ADIFAB2; details: response relative to ADIFAB2
How it was run: as §1

[3] = Probe fluorescence ratio response to linoleic acid relative to ADIFAB2; details: response relative to ADIFAB2
How it was run: as §1

[4] = Probe fluorescence ratio response to arachidonic acid relative to ADIFAB2; details: arachidonic acid; response relative to ADIFAB2
How it was run: as §1

[5] = Probe fluorescence ratio response to linolenic acid relative to ADIFAB2; details: response relative to ADIFAB2
How it was run: as §1

Row | Molecule | DR/DR OA [1] | DR/DR PA [2] | DR/DR LA [3] | DR/DR AA [4] | DR/DR LNA [5]
1 | 91C, 72A (protein, listed as Rattus norvegicus, PEPTIDE (1)...(131) wild-type rat intestinal fatty acid binding protein) AFDGTWKVDRNENYEKFMEKMGINVVKRKLGAHDNLKLTITQEGNKFTVKESSNFRNIDVVFELGVDFAYSAADGTELTGTWTMEGNKLVCKFKRVDNGKELIAVREISGNELIQTYTYEGVEAKRIFKKE | 1.470 | 0.794 | 1.371 | 1.201 | 1.420
2 | 38H, 72A (protein, listed as Rattus norvegicus, PEPTIDE (1)...(131) wild-type rat intestinal fatty acid binding protein) AFDGTWKVDRNENYEKFMEKMGINVVKRKLGAHDNLKHTITQEGNKFTVKESSNFRNIDVVFELGVDFAYSAADGTELTGTWTMEGNKLVGKFKRVDNGKELIAVREISGNELIQTYTYEGVEAKRIFKKE | 0.955 | 0.624 | 0.905 | 0.998 | 0.864
3 | 55L, 72A (protein, listed as Rattus norvegicus, PEPTIDE (1)...(131) wild-type rat intestinal fatty acid binding protein) AFDGTWKVDRNENYEKFMEKMGINVVKRKLGAHDNLKLTITQEGNKFTVKESSNLRNIDVVFELGVDFAYSAADGTELTGTWTMEGNKLVGKFKRVDNGKELIAVREISGNELIQTYTYEGVEAKRIFKKE | 0.822 | 0.631 | 0.706 | 0.863 | 0.719
4 | 106H, 72A (protein, listed as Rattus norvegicus, PEPTIDE (1)...(131) wild-type rat intestinal fatty acid binding protein) AFDGTWKVDRNENYEKFMEKMGINVVKRKLGAHDNLKLTITQEGNKFTVKESSNFRNIDVVFELGVDFAYSAADGTELTGTWTMEGNKLVGKFKRVDNGKELIAVHEISGNELIQTYTYEGVEAKRIFKKE | 0.732 | 0.258 | 0.669 | 0.636 | 0.633
5 | 106I, 72A (protein, listed as Rattus norvegicus, PEPTIDE (1)...(131) wild-type rat intestinal fatty acid binding protein) AFDGTWKVDRNENYEKFMEKMGINVVKRKLGAHDNLKLTITQEGNKFTVKESSNFRNIDVVFELGVDFAYSAADGTELTGTWTMEGNKLVGKFKRVDNGKELIAVIEISGNELIQTYTYEGVEAKRIFKKE | 0.661 | 0.223 | 0.563 | 0.481 | 0.624
6 | 106V, 72A (protein, listed as Rattus norvegicus, PEPTIDE (1)...(131) wild-type rat intestinal fatty acid binding protein) AFDGTWKVDRNENYEKFMEKMGINVVKRKLGAHDNLKLTITQEGNKFTVKESSNFRNIDVVFELGVDFAYSAADGTELTGTWTMEGNKLVGKFKRVDNGKELIAVVEISGNELIQTYTYEGVEAKRIFKKE | 0.657 | 0.191 | 0.574 | 0.398 | 0.592
7 | 106A, 72A (protein, listed as Rattus norvegicus, PEPTIDE (1)...(131) wild-type rat intestinal fatty acid binding protein) AFDGTWKVDRNENYEKFMEKMGINVVKRKLGAHDNLKLTITQEGNKFTVKESSNFRNIDVVFELGVDFAYSAADGTELTGTWTMEGNKLVGKFKRVDNGKELIAVAEISGNELIQTYTYEGVEAKRIFKKE | 0.596 | 0.164 | 0.515 | 0.389 | 0.518
8 | 106N, 72A (protein, listed as Rattus norvegicus, PEPTIDE (1)...(131) wild-type rat intestinal fatty acid binding protein) AFDGTWKVDRNENYEKFMEKMGINVVKRKLGAHDNLKLTITQEGNKFTVKESSNFRNIDVVFELGVDFAYSAADGTELTGTWTMEGNKLVGKFKRVDNGKELIAVNEISGNELIQTYTYEGVEAKRIFKKE | 0.496 | 0.152 | 0.451 | 0.384 | 0.445
9 | 38M 72G 117F (protein, listed as Rattus norvegicus, PEPTIDE (1)...(131) wild-type rat intestinal fatty acid binding protein) AFDGTWKVDRNENYEKFMEKMGINVVKRKLGAHDNLKMTITQEGNKFTVKESSNFRNIDVVFELGVDFAYSGADGTELTGTWTMEGNKLVGKFKRVDNGKELIAVREISGNELIQTFTYEGVEAKRIFKKE | 0.686 | 0.438 | 0.748 | 1.280 | 0.733
10 | 106S, 72A (protein, listed as Rattus norvegicus, PEPTIDE (1)...(131) wild-type rat intestinal fatty acid binding protein) AFDGTWKVDRNENYEKFMEKMGINVVKRKLGAHDNLKLTITQEGNKFTVKESSNFRNIDVVFELGVDFAYSAADGTELTGTWTMEGNKLVGKFKRVDNGKELIAVSEISGNELIQTYTYEGVEAKRIFKKE | 0.478 | 0.149 | 0.355 | 0.321 | 0.403
11 | 106T, 72A (protein, listed as Rattus norvegicus, PEPTIDE (1)...(131) wild-type rat intestinal fatty acid binding protein) AFDGTWKVDRNENYEKFMEKMGINVVKRKLGAHDNLKLTITQEGNKFTVKESSNFRNIDVVFELGVDFAYSAADGTELTGTWTMEGNKLVGKFKRVDNGKELIAVTEISGNELIQTYTYEGVEAKRIFKKE | 0.434 | 0.118 | 0.246 | 0.250 | 0.367
12 | 106L, 72A (protein, listed as Rattus norvegicus, PEPTIDE (1)...(131) wild-type rat intestinal fatty acid binding protein) AFDGTWKVDRNENYEKFMEKMGINVVKRKLGAHDNLKLTITQEGNKFTVKESSNFRNIDVVFELGVDFAYSAADGTELTGTWTMEGNKLVGKFKRVDNGKELIAVLEISGNELIQTYTYEGVEAKRIFKKE | 0.431 | 0.183 | 0.382 | 0.383 | 0.364
13 | 11Y, 72A (protein, listed as Rattus norvegicus, PEPTIDE (1)...(131) wild-type rat intestinal fatty acid binding protein) AFDGTWKVDRYENYEKFMEKMGINVVKRKLGAHDNLKLTITQEGNKFTVKESSNFRNIDVVFELGVDFAYSAADGTELTGTWTMEGNKLVGKFKRVDNGKELIAVREISGNELIQTYTYEGVEAKRIFKKE | 0.156 | 0.296 | 0.330 | 0.516 | 0.311
14 | 14I 38I 72V (protein, listed as Rattus norvegicus, PEPTIDE (1)...(131) wild-type rat intestinal fatty acid binding protein) AFDGTWKVDRNENIEKFMEKMGINVVKRKLGAHDNLKITITQEGNKFTVKESSNFRNIDVVFELGVDFAYSVADGTELTGTWTMEGNKLVGKFKRVDNGKELIAVREISGNELIQTYTYEGVEAKRIFKKE | 0.398 | 0.844 | 0.862 | 0.715 | 0.926
15 | 14I 72A (protein, listed as Rattus norvegicus, PEPTIDE (1)...(131) wild-type rat intestinal fatty acid binding protein) AFDGTWKVDRNENIEKFMEKMGINVVKRKLGAHDNLKLTITQEGNKFTVKESSNFRNIDVVFELGVDFAYSAADGTELTGTWTMEGNKLVGKFKRVDNGKELIAVREISGNELIQTYTYEGVEAKRIFKKE | 0.478 | 0.762 | 0.944 | 0.825 | 0.997
16 | 11I, 72A (protein, listed as Rattus norvegicus, PEPTIDE (1)...(131) wild-type rat intestinal fatty acid binding protein) AFDGTWKVDRIENYEKFMEKMGINVVKRKLGAHDNLKLTITQEGNKFTVKESSNFRNIDVVFELGVDFAYSAADGTELTGTWTMEGNKLVGKFKRVDNGKELIAVREISGNELIQTYTYEGVEAKRIFKKE | 0.387 | 1.186 | 0.546 | 0.584 | 0.507
17 | 14L 72A (protein, listed as Rattus norvegicus, PEPTIDE (1)...(131) wild-type rat intestinal fatty acid binding protein) AFDGTWKVDRNENLEKFMEKMGINVVKRKLGAHDNLKLTITQEGNKFTVKESSNFRNIDVVFELGVDFAYSAADGTELTGTWTMEGNKLVGKFKRVDNGKELIAVREISGNELIQTYTYEGVEAKRIFKKE | 0.446 | 0.534 | 0.766 | 0.838 | 0.867
